The text below walks through data of article doi:10.1101/2025.03.16.643542 (bioRxiv, 2025).

This assay addresses epidermal growth factor receptor (EGFR) on EGFR^hi A431 cells (Homo sapiens, A431 cells, UniProt P00533). The experiment in a line: flow cytometry on cells. In general terms: A flow cytometer gives signals particle by particle.

B1: nanobody 5B12 (VHH)
VHH: QVQLQESGGGLVQTGDSLRLSCAASGGTLTSYNMGWFRQAPGKDREFVAGISWSGGTGTYYADSVKGRFTISTDNAKNTVYLQMDSLKPDDTAVYYCAVRRRAYSVYTRPGLYDYWGQGTQVTVSS
In turn, B1 came in with a 50% effective concentration (EC50) of 0.0047 µM.

B2: nanobody 5B1 (VHH)
VHH: QVQLQESGGGLVQAGDSLRLSCAASGRTFSTYTMGWFRQAPGKEREFVAGIGYSDDNTYYTDSVKGRFTVSRGSAKNTVYLQMNSLKPEDTAVYYCAARVGDVVFTIADNYAYWGQGTQVTVSS
For the molecule B2, it took 0.0769 µM to reach a half-maximal effect (EC50).

Usually EC50 stands for the midpoint of the concentration-response curve.
